The target of assay [1] is T1, COPB2_(1–304), N-terminal WD repeat of COPB2 (S. cerevisiae, UniProt P41811 1-304).
T1 construct: COPB2 (coatomer beta'), residues 1-304, N-terminal WD repeat domain; residues are counted in 'Saccharomyces cerevisiae COPB2 numbering'; PDB 2YNN (COPB2 1-304) served as search model; codon-optimised synthetic gene; also called WD-repeat domain of COPB2; source: E. coli BL21(DE3), purified (Ni-NTA, tag cleavage, ion exchange, SEC); not shown: 6xHis-Sumo3, N-terminal, cleaved
T1 sequence (looked up): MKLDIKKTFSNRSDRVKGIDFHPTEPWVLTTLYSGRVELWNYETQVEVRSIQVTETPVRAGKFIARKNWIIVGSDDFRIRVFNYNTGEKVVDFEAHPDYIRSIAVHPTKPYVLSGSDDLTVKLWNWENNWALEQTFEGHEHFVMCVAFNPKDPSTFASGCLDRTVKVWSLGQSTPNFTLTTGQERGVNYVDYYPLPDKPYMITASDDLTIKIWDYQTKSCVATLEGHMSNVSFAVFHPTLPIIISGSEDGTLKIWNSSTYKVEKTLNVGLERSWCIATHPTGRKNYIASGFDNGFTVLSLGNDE
The assay is described as follows: ITC; 450 μM of each peptide titrated into 20 μM COPB2 1-304; 25°C; 150 mM NaCl, 0.5 mM TCEP, 25 mM Hepes pH 7.5; one-site model. The settings on record: both partners purified.

Assay [2] has as its target T2, COPB2_(1–304), N-terminal WD repeat of COPB2 (S. cerevisiae, UniProt P41811 1-304).
T2 chain: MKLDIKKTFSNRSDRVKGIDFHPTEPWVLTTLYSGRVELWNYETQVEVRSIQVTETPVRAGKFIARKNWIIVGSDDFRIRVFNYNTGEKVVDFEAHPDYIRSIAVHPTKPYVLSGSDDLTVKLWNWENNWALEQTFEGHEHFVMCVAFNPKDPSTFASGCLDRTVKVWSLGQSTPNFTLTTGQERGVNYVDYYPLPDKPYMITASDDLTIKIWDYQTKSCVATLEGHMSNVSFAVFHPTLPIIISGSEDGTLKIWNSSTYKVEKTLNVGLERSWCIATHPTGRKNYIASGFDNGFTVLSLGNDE
The experiment in a line: ITC.

Here are results for 4 molecules from paper PMC11633749, “Identification of the Wnt signal peptide that directs secretion on extracellular vesicles” (Science Advances, 2024).

B1: exosome-binding peptide (EBP), 18-amino acid polypeptide of Wnt7a (240-257) (peptide)
peptide: PVRASRNKRPTFLKIKKP
notes: also called 18–amino acid EBP polypeptide
As for B1, the affinity in assay [1], expressed as Kd, was 11.6 µM.

B2: EBP peptide K256A (peptide)
chain: PVRASRNKRPTFLKIKAP
The molecule B2 yielded a Kd in assay [2] of 6 µM.

B3: EBP peptide K253A (peptide)
chain: PVRASRNKRPTFLAIKKP
Molecule B3 showed a Kd in assay [2] of 47.2 µM.

B4: Wnt_(252–257) peptide (LKIKKP) (peptide)
peptide: LKIKKP
notes: also called C-terminal half of the polypeptide
With B4, in assay [1], the Kd is 37.2 µM.
